Assay results from the supplement of paper PMC7877785.
± gives the uncertainty stated by the source.

Experiment: self-splicing fitness, log relative to wild type (ln ratio); higher = more splicing; Tetrahymena group I intron in knt gene, E. coli kanamycin selection, DiMSum; sequences stand for … in CUCUCU…GGAGGGAAAAGUUAUCAGGCAUGCACCUGGUAGCUAGUCUUUAAACCAAUAGAUUGCAUCGGUUUAAAAGGCAAGACCGUCAAAUUGCGGGAAAGGGGUCAACAGCCGUUCAGUACCAAGUCUCAGGGGAAACUUUGAGAUGGCCUUGCAAAGGGUAUGGUAAUAAGCUGACGGACAUGGUCCUAACCACGCAGCCAAGUCCUAAGUCAACAGAUCUUCUGUUGAUAUGGAUGCAGUUCACAGACUAAAUGUCGGUCGGGGAAGAUGUAUUCUUCUCAUAAGAUAUAGUCGGACCUCUCCUUAAUGGGAGCUAGCGGAUGAAGUGAUGCAACACUGGAGCCGCUGGGAACUAAUUUGUAUGCGAAAGUAUAUUGAUUAGUUUUGGAGUACUCGUGGUCG
Summary of the method: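 Pooled colonies went to amplicon sequencing on an Illumina HiSeq 2500 after six replicate transformations. The plates were LB agar with 100 μg/mL carbenicillin, 50 μM IPTG and 0.2% rhamnose, with or without 25 μg/mL kanamycin, incubated overnight at 37°C or 30°C. The E. coli BL21(DE3) library had all eight P1ex-region intron nucleotides randomised, the intron placed in the knt kanamycin-resistance gene on pET-22b(+). DiMSum fitness is the error-weighted combination of replicate fold changes, kanamycin against none, normalised to wild type.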

GAUUAGCAAUAUUACGUGAU
self-splicing fitness (ln) (30 °C): -3.04 ± 0.11 | self-splicing fitness (ln) (37 °C): -1.07 ± 0.091

GAAAAGCAAUAUUACGCUAA
self-splicing fitness (ln) (30 °C): -2.24 ± 0.16 | self-splicing fitness (ln) (37 °C): -1.1 ± 0.13

GUACAGCAAUAUUACGAGAC
self-splicing fitness (ln) (30 °C): -2.09 ± 0.24 | self-splicing fitness (ln) (37 °C): -2.5 ± 0.28

UGGCAGCAAUAUUACGAAGG
self-splicing fitness (ln) (30 °C): -2.93 ± 0.18 | self-splicing fitness (ln) (37 °C): -1.21 ± 0.23

UCUGAGCAAUAUUACGACUA
self-splicing fitness (ln) (30 °C): -2.49 ± 0.19 | self-splicing fitness (ln) (37 °C): -1.64 ± 0.17

GCGCAGCAAUAUUACGGCGU
self-splicing fitness (ln) (30 °C): -3.18 ± 0.33

CCCGAGCAAUAUUACGCUAU
self-splicing fitness (ln) (30 °C): -4.39 ± 0.34 | self-splicing fitness (ln) (37 °C): -2.49 ± 0.2

ACACAGCAAUAUUACGCGUG
self-splicing fitness (ln) (30 °C): -2.25 ± 0.074 | self-splicing fitness (ln) (37 °C): -1.68 ± 0.081

GGCAAGCAAUAUUACGUUAG
self-splicing fitness (ln) (30 °C): -3.77 ± 0.2 | self-splicing fitness (ln) (37 °C): -2.57 ± 0.19

AGACAGCAAUAUUACGGCAA
self-splicing fitness (ln) (30 °C): -1.37 ± 0.064 | self-splicing fitness (ln) (37 °C): -0.634 ± 0.079

GGGGAGCAAUAUUACGAUAU
self-splicing fitness (ln) (30 °C): -2.95 ± 0.4 | self-splicing fitness (ln) (37 °C): -0.987 ± 0.24

GCAAAGCAAUAUUACGAGCG
self-splicing fitness (ln) (30 °C): -1.06 ± 0.077 | self-splicing fitness (ln) (37 °C): -0.631 ± 0.093

AGGCAGCAAUAUUACGUGUC
self-splicing fitness (ln) (30 °C): -3.18 ± 0.15 | self-splicing fitness (ln) (37 °C): -2.58 ± 0.19

CGCGAGCAAUAUUACGCUCU
self-splicing fitness (ln) (37 °C): -0.833 ± 0.33

AUCUAGCAAUAUUACGAGUG
self-splicing fitness (ln) (30 °C): -1.41 ± 0.078 | self-splicing fitness (ln) (37 °C): -1.32 ± 0.12

GAAAAGCAAUAUUACGGCAU
self-splicing fitness (ln) (30 °C): -0.258 ± 0.066 | self-splicing fitness (ln) (37 °C): 0.329 ± 0.083

AGGCAGCAAUAUUACGCCCG
self-splicing fitness (ln) (30 °C): -1.26 ± 0.12 | self-splicing fitness (ln) (37 °C): -0.431 ± 0.2

UGCGAGCAAUAUUACGCAAG
self-splicing fitness (ln) (30 °C): -2.27 ± 0.27

UCCCAGCAAUAUUACGCGGU
self-splicing fitness (ln) (30 °C): -3.01 ± 0.13 | self-splicing fitness (ln) (37 °C): -0.898 ± 0.087

UAGCAGCAAUAUUACGGAAU
self-splicing fitness (ln) (30 °C): -3.87 ± 0.44 | self-splicing fitness (ln) (37 °C): -2.13 ± 0.33

ACGCAGCAAUAUUACGUCUA
self-splicing fitness (ln) (30 °C): -1.55 ± 0.096 | self-splicing fitness (ln) (37 °C): -1.22 ± 0.08

GCGCAGCAAUAUUACGGGUG
self-splicing fitness (ln) (30 °C): -1.87 ± 0.083 | self-splicing fitness (ln) (37 °C): -1.65 ± 0.11

CAAAAGCAAUAUUACGGCGA
self-splicing fitness (ln) (30 °C): -1.16 ± 0.11 | self-splicing fitness (ln) (37 °C): -0.502 ± 0.098

GCGAAGCAAUAUUACGACGA
self-splicing fitness (ln) (30 °C): 0.0165 ± 0.18 | self-splicing fitness (ln) (37 °C): 0.163 ± 0.2

CUCAAGCAAUAUUACGCGUG
self-splicing fitness (ln) (30 °C): -3.3 ± 0.21 | self-splicing fitness (ln) (37 °C): -3.41 ± 0.43

CCAGAGCAAUAUUACGGAAU
self-splicing fitness (ln) (30 °C): -3.42 ± 0.26 | self-splicing fitness (ln) (37 °C): -2.52 ± 0.17

CUAUAGCAAUAUUACGGGGG
self-splicing fitness (ln) (30 °C): -2.16 ± 0.23 | self-splicing fitness (ln) (37 °C): -3.09 ± 0.43

AGACAGCAAUAUUACGCUAU
self-splicing fitness (ln) (30 °C): -3.31 ± 0.18 | self-splicing fitness (ln) (37 °C): -0.948 ± 0.12

UGAGAGCAAUAUUACGACAU
self-splicing fitness (ln) (30 °C): -3.847 ± 0.037 | self-splicing fitness (ln) (37 °C): -2.82 ± 0.048

UGCAAGCAAUAUUACGUAUC
self-splicing fitness (ln) (30 °C): -3.22 ± 0.2 | self-splicing fitness (ln) (37 °C): -1.14 ± 0.15

GCGCAGCAAUAUUACGACGG
self-splicing fitness (ln) (30 °C): -1.13 ± 0.14 | self-splicing fitness (ln) (37 °C): -0.906 ± 0.17

GUGGAGCAAUAUUACGGGAG
self-splicing fitness (ln) (30 °C): -3.74 ± 0.37 | self-splicing fitness (ln) (37 °C): -1.8 ± 0.3

UAUGAGCAAUAUUACGCCAG
self-splicing fitness (ln) (30 °C): -2.96 ± 0.4 | self-splicing fitness (ln) (37 °C): -1.21 ± 0.38

AUCAAGCAAUAUUACGCAGC
self-splicing fitness (ln) (30 °C): -2.12 ± 0.2 | self-splicing fitness (ln) (37 °C): -1.8 ± 0.25

ACCCAGCAAUAUUACGAUCA
self-splicing fitness (ln) (30 °C): -0.557 ± 0.11 | self-splicing fitness (ln) (37 °C): -0.56 ± 0.13

AUCGAGCAAUAUUACGGAGU
self-splicing fitness (ln) (30 °C): -3.83 ± 0.31 | self-splicing fitness (ln) (37 °C): -2.42 ± 0.23

UGUCAGCAAUAUUACGCCAU
self-splicing fitness (ln) (30 °C): -1.79 ± 0.18 | self-splicing fitness (ln) (37 °C): -1.98 ± 0.16

UGAAAGCAAUAUUACGCAUC
self-splicing fitness (ln) (37 °C): -3.14 ± 0.28

AGUGAGCAAUAUUACGGGCC
self-splicing fitness (ln) (30 °C): -3.49 ± 0.4 | self-splicing fitness (ln) (37 °C): -2.02 ± 0.34
